The record followed here is US20240368655.

The data set concerns the target Concanavalin A (UniProt P02866). The experiment in a line: SELEX. The conditions noted are these: FANA copy of the listed DNA template; every U is C8-alkyne-FANA U conjugated to 2-azidoethyl-alpha-D-mannose; displayed on its encoding dsDNA; round 3 recovery by qPCR; round 1 about 0.14%; PBS, 2.5 mM MgCl2, 1 mM CaCl2, 0.1 mM MnCl2, 0.01% Tween 20, room temperature. For orientation: In qPCR the cycle at which signal appears reflects the starting amount.

“CCTATAGCCGTTTGCACAAGNNNNNNNNNNNNNNNNNNNNNNNNNNNNNNNNNNNNNNNNCCCGTACCCGTTAAGATTACTTCGGACTGGGATC [Man-cmFANA N40 library, round 3]” displayed a binding of 47 % recovery.
